Laboratory results published in publication PMC9032424 (PLoS ONE, 2022).
Numbering of substitutions follows the chain as printed. Numbers in names are those of the source.

B1: HisF E167A (enzyme, Thermotoga maritima)
chain: MLAKRIIACLDVKDGRVVKGTNFENLRDSGDPVELGKFYSEIGIDELVFLDITASVEKRKTMLELVEKVAEQIDIPFTVGGGIHDFETASELILRGADKVSINTAAVENPSLITQIAQTFGSQAVVVAIDAKRVDGEFMVFTYSGKKNTGILLRDWVVEVEKRGAGAILLTSIDRDGTKSGYDTEMIRFVRPLTTLPIIASGGAGKMEHFLEAFLAGADAALAASVFHFREIDVRELKEYLKKHGVNVRLEGL
notes: HisF, Thermotoga maritima, with the single mutation E167A; parent is the HisF of m1; probably as the His-tagged wild-type HisF; also called mutant HisF
B2: HisF F210A (enzyme, Thermotoga maritima)
chain: B1 chain with A167E, F210A
notes: HisF, Thermotoga maritima, with the single mutation F210A; parent is the HisF of m1; probably as the His-tagged wild-type HisF; also called mutant HisF
B3: HisF L169A (enzyme, Thermotoga maritima)
chain: B1 chain with A167E, L169A
notes: HisF, Thermotoga maritima, with the single mutation L169A; parent is the HisF of m1; probably as the His-tagged wild-type HisF; also called mutant HisF
B4: HisF K13A (enzyme, Thermotoga maritima)
chain: B1 chain with K13A, A167E
notes: HisF, Thermotoga maritima, with the single mutation K13A; parent is the HisF of m1; probably as the His-tagged wild-type HisF; also called mutant HisF

target: T1, HisH (glutaminase subunit of Imidazole Glycerol Phosphate Synthase) from Thermotoga maritima (Thermotoga maritima, UniProt Q9X0C8 1-201); assay: other fluorescence titration; intrinsic tryptophan fluorescence; 15 uM HisH mixed with sub-stoichiometric HisF (1 to 5 uM); 20 mM potassium phosphate pH 7.5; excitation 295 nm, difference spectra read at 321 nm; fluorescence as proxy of concentrations; 30°C; settings: both partners purified
T1 construct: HisH, Thermotoga maritima; cloned NdeI/XhoI into pET28a; No removal of the His-tag is described; source: bacteria transformed with pET28a, purified (70°C heat step, Ni-NTA agarose)
T1 sequence: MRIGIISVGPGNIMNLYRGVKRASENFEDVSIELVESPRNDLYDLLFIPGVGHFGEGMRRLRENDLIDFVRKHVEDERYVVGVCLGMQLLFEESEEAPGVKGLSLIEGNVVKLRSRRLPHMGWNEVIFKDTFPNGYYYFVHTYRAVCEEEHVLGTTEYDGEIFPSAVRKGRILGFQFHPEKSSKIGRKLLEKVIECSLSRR

Row | Binder | fold increase of Kd against wild-type HisF [fold]
1 | B1 | 10
2 | B2 | ~3
3 | B3 | ~3
4 | B4 | ~3
